Laboratory results reported in the supplement of paper PMC5998384.

Assays:
HeLa Kyoto [1] = experiment: solubility in G1/S (NP-40 vs SDS abundance) (log2 ratio); higher = more soluble; details: cell cycle stage: G1/S
HeLa Kyoto [2] = experiment: solubility change mitosis vs G1/S (difference of NP-40 vs SDS log2 ratios) (log2 ratio difference); higher = more soluble in mitosis
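Throughout, for solubility change mitosis vs G1/S (difference of NP-40 vs SDS log2 ratios): synchronized HeLa Kyoto cells (double thymidine block for G1/S, nocodazole release for mitosis), protein amounts in NP-40 versus SDS lysates quantified by mass spectrometry, three biological replicates.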
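Throughout, for solubility in G1/S (NP-40 vs SDS abundance): HeLa Kyoto cells arrested at G1/S by double thymidine block, proteins quantified by TMT10plex mass spectrometry in mild NP-40 versus SDS extracts, three biological replicates.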

Sequence | solubility in G1/S (log2) (HeLa Kyoto [1]) | solubility change mitosis (log2) (HeLa Kyoto [2])
MKLHYVAVLTLAILMFLTWLPESLSCNKALCASDVSKCLIQELCQCRPGEGNCSCCKECMLCLGALWDECCDCVGMCNPRNYSDTPPTSKSTVEELHEPIPSLFRALTEGDTQLNWNIVSFPVAEELSHHENLVSFLETVNQPHHQNVSVPSNNVHAPYSSDKEHMCTVVYFDDCMSIHQCKISCESMGASKYRWFHNACCECIGPECIDYGSKTVKCMNCMF [TWSG1] | 0.0362 | -0.383
MKRVNSCVKSDEHVLEELETEGERQLKSLLQHQLDTSVSIEECMSKKESFAPGTMYKPFGKEAAGTMTLSQFQTLHEKDQETASLRELGLNETEILIWKSHVSGEKKTKLRATPEAIQNRLQDIEERISERQRILCLPQRFAKSKQLTRREMEIEKSLFQGADRHSFLKALYYQDEPQKKNKGDPMNNLESFYQEMIMKKRLEEFQLMRGEPFASHSLVSATSVGDSGTAESPSLLQDKGKQAAQGKGPSLHVANVIDFSPEQCWTGPKKLTQPIEFVPEDEIQRNRLSEEEIRKIPMFSSYNPGEPNKVLYLKNLSPRVTERDLVSLFARFQEKKGPPIQFRMMTGRMRGQAFITFPNKEIAWQALHLVNGYKLHGKILVIEFGKNKKQRSNLQATSLISCATGSTTEISGS [RBM41] | -0.192 | -0.0432
MLGTLRAMEGEDVEDDQLLQKLRASRRRFQRRMQRLIEKYNQPFEDTPVVQMATLTYETPQGLRIWGGRLIKERNEGEIQDSSMKPADRTDGSVQAAAWGPELPSHRTVLGADSKSGEVDATSDQEESVAWALAPAVPQSPLKNELRRKYLTQVDILLQGAEYFECAGNRAGRDVRVTPLPSLASPAVPAPGYCSRISRKSPGDPAKPASSPREWDPLHPSSTDMALVPRNDSLSLQETSSSSFLSSQPFEDDDICNVTISDLYAGMLHSMSRLLSTKPSSIISTKTFIMQNWNSRRRHRYKSRMNKTYCKGARRSQRSSKENFIPCSEPVKGTGALRDCKNVLDVSCRKTGLKLEKAFLEVNRPQIHKLDPSWKERKVTPSKYSSLIYFDSSATYNLDEENRFRTLKWLISPVKIVSRPTIRQGHGENRQREIEIRFDQLHREYCLSPRNQPRRMCLPDSWAMNMYRGGPASPGGLQGLETRRLSLPSSKAKAKSLSEAFENLGKRSLEAGRCLPKSDSSSSLPKTNPTHSATRPQQTSDLHVQGNSSGIFRKSVSPSKTLSVPDKEVPGHGRNRYDEIKEEFDKLHQKYCLKSPGQMTVPLCIGVSTDKASMEVRYQTEGFLGKLNPDPHFQGFQKLPSSPLGCRKSLLGSTAIEAPSSTCVARAITRDGTRDHQFPAKRPRLSEPQGSGRQGNSLGASDGVDNTVRPGDQGSSSQPNSEERGENTSYRMEEKSDFMLEKLETKSV [HJURP] | -0.154 | 0.197
MLLGLAAMELKVWVDGIQRVVCGVSEQTTCQEVVIALAQAIGQTGRFVLVQRLREKERQLLPQECPVGAQATCGQFASDVQFVLRRTGPSLAGRPSSDSCPPPERCLIRASLPVKPRAALGCEPRKTLTPEPAPSLSRPGPAAPVTPTPGCCTDLRGLELRVQRNAEELGHEAFWEQELRREQAREREGQARLQALSAATAEHAARLQALDAQARALEAELQLAAEAPGPPSPMASATERLHQDLAVQERQSAEVQGSLALVSRALEAAERALQAQAQELEELNRELRQCNLQQFIQQTGAALPPPPRPDRGPPGTQGPLPPAREESLLGAPSESHAGAQPRPRGGPHDAELLEVAAAPAPEWCPLAAQPQAL [RASSF7] | 0.299 | 0.0497
MLLSVTSRPGISTFGYNRNNKKPYVSLAQQMAPPSPSNSTPNSSSGSNGNDQLSKTNLYIRGLQPGTTDQDLVKLCQPYGKIVSTKAILDKTTNKCKGYGFVDFDSPSAAQKAVTALKASGVQAQMAKQQEQDPTNLYISNLPLSMDEQELEGMLKPFGQVISTRILRDTSGTSRGVGFARMESTEKCEAIITHFNGKYIKTPPGVPAPSDPLLCKFADGGPKKRQNQGKFVQNGRAWPRNADMGVMALTYDPTTALQNGFYPAPYNITPNRMLAQSALSPYLSSPVSSYQRVTQTSPLQVPNPSWMHHHSYLMQPSGSVLTPGMDHPISLQPASMMGPLTQQLGHLSLSSTGTYMPTAAAMQGAYISQYTPVPSSSVSVEESSGQQNQVAVDAPSEHGVYSFQFNK [RBMS2] | 0.474 | 0.0678
MLPEAGSLWLLKLLRDIQLAQFYWPILEELNVTRPEHFDFVKPEDLDGIGMGRPAQRRLSEALKRLRSGPKSKNWVYKILGGFAPEHKEPTLPSDSPRHLPEPEGGLKCLIPEGAVCRGELLGSGCFGVVHRGLWTLPSGKSVPVAVKSLRVGPEGPMGTELGDFLREVSVMMNLEHPHVLRLHGLVLGQPLQMVMELAPLGSLHARLTAPAPTPPLLVALLCLFLRQLAGAMAYLGARGLVHRDLATRNLLLASPRTIKVADFGLVRPLGGARGRYVMGGPRPIPYAWCAPESLRHGAFSSASDVWMFGVTLWEMFSGGEEPWAGVPPYLILQRLEDRARLPRPPLCSRALYSLALRCWAPHPADRPSFSHLEGLLQEAGPSEACCVRDVTEPGALRMETGDPITVIEGSSSFHSPDSTIWKGQNGRTFKVGSFPASAVTLADAGGLPATRPVHRGTPARGDQHPGSIDGDRKKANLWDAPPARGQRRNMPLERMKGISRSLESVLSLGPRPTGGGSSPPEIRQARAVPQGPPGLPPRPPLSSSSPQPSQPSRERLPWPKRKPPHNHPMGMPGARKAAALSGGLLSDPELQRKIMEVELSVHGVTHQECQTALGATGGDVVSAIRNLKVDQLFHLSSRSRADCWRILEHYQWDLSAASRYVLARP [TNK1] | 0.0271 | -0.0434
MLRWTRAWRLPREGLGPHGPSFARVPVAPSSSSGGRGGAEPRPLPLSYRLLDGEAALPAVVFLHGLFGSKTNFNSIAKILAQQTGRRVLTVDARNHGDSPHSPDMSYEIMSQDLQDLLPQLGLVPCVVVGHSMGGKTAMLLALQRPELVERLIAVDISPVESTGVSHFATYVAAMRAINIADELPRSRARKLADEQLSSVIQDMAVRQHLLTNLVEVDGRFVWRVNLDALTQHLDKILAFPQRQESYLGPTLFLLGGNSQFVHPSHHPEIMRLFPRAQMQTVPNAGHWIHADRPQDFIAAIRGFLV [ABHD11] | 0.492 | 0.0439
MMAGCGEIDHSINMLPTNRKANESCSNTAPSLTVPECAICLQTCVHPVSLPCKHVFCYLCVKGASWLGKRCALCRQEIPEDFLDKPTLLSPEELKAASRGNGEYAWYYEGRNGWWQYDERTSRELEDAFSKGKKNTEMLIAGFLYVADLENMVQYRRNEHGRRRKIKRDIIDIPKKGVAGLRLDCDANTVNLARESSADGADSVSAQSGASVQPLVSSVRPLTSVDGQLTSPATPSPDASTSLEDSFAHLQLSGDNTAERSHRGEGEEDHESPSSGRVPAPDTSIEETESDASSDSEDVSAVVAQHSLTQQRLLVSNANQTVPDRSDRSGTDRSVAGGGTVSVSVRSRRPDGQCTVTEV [RNF146] | -0.244 | -0.158
MMVESASETIRSAPSGQNGVGSLSGQADGSSGGATGTTASGTGREVTTGADSNGEMSPAELLHFQQQQALQVARQFLLQQASGLSSPGNNDSKQSASAVQVPVSVAMMSPQMLTPQQMQQILSPPQLQALLQQQQALMLQQLQEYYKKQQEQLHLQLLTQQQAGKPQPKEALGNKQLAFQQQLLQMQQLQQQHLLNLQRQGLVSLQPNQASGPLQTLPQAAVCPTDLPQLWKGEGAPGQPAEDSVKQEGLDLTGTAATATSFAAPPKVSPPLSHHTLPNGQPTVLTSRRDSSSHEETPGSHPLYGHGECKWPGCETLCEDLGQFIKHLNTEHALDDRSTAQCRVQMQVVQQLEIQLAKESERLQAMMAHLHMRPSEPKPFSQPLNPVPGSSSFSKVTVSAADSFPDGLVHPPTSAAAPVTPLRPPGLGSASLHGGGPARRRSSDKFCSPISSELAQNHEFYKNADVRPPFTYASLIRQAILETPDRQLTLNEIYNWFTRMFAYFRRNTATWKNAVRHNLSLHKCFVRVENVKGAVWTVDEREYQKRRPPKMTGSPTLVKNMISGLSYGALNASYQAALAESSFPLLNSPGMLNPGSASSLLPLSHDDVGAPVEPLPSNGSSSPPRLSPPQYSHQVQVKEEPAEAEEDRQPGPPLGAPNPSASGPPEDRDLEEELPGEELS [FOXP4] | 0.393 | -0.162
MNMIWRNSISCLRLGKVPHRYQSGYHPVAPLGSRILTDPAKVFEHNMWDHMQWSKEEEAAARKKVKENSAVRVLLEEQVKYEREASKYWDTFYKIHKNKFFKDRNWLLREFPEILPVDQKPEEKARESSWDHVKTSATNRFSRMHCPTVPDEKNHYEKSSGSSEGQSKTESDFSNLDSEKHKKGPMETGLFPGSNATFRILEVGCGAGNSVFPILNTLENSPESFLYCCDFASGAVELVKSHSSYRATQCFAFVHDVCDDGLPYPFPDGILDVILLVFVLSSIHPDRTLFI [METTL8] | -0.312 | 0.054
MNPLTKVKLINELNEREVQLGVADKVSWHSEYKDSAWIFLGGLPYELTEGDIICVFSQYGEIVNINLVRDKKTGKSKGFCFLCYEDQRSTILAVDNFNGIKIKGRTIRVDHVSNYRAPKDSEEIDDVTRQLQEKGCGARTPSPSLSESSEDEKPTKKHKKDKKEKKKKKKEKEKADREVQAEQPSSSSPRRKTVKEKDDTGPKKHSSKNSERAQKSEPREGQKLPKSRTAYSGGAEDLERELKKEKPKHEHKSSSRREAREEKTRIRDRGRSSDAHSSWYNGRSEGRSYRSRSRSRDKSHRHKRARRSRERESSNPSDRWRH [RBMX2] | -1.17 | 0.59
MNQPQRMAPVGTDKELSDLLDFSMMFPLPVTNGKGRPASLAGAQFGGSGLEDRPSSGSWGSGDQSSSSFDPSRTFSEGTHFTESHSSLSSSTFLGPGLGGKSGERGAYASFGRDAGVGGLTQAGFLSGELALNSPGPLSPSGMKGTSQYYPSYSGSSRRRAADGSLDTQPKKVRKVPPGLPSSVYPPSSGEDYGRDATAYPSAKTPSSTYPAPFYVADGSLHPSAELWSPPGQAGFGPMLGGGSSPLPLPPGSGPVGSSGSSSTFGGLHQHERMGYQLHGAEVNGGLPSASSFSSAPGATYGGVSSHTPPVSGADSLLGSRGTTAGSSGDALGKALASIYSPDHSSNNFSSSPSTPVGSPQGLAGTSQWPRAGAPGALSPSYDGGLHGLQSKIEDHLDEAIHVLRSHAVGTAGDMHTLLPGHGALASGFTGPMSLGGRHAGLVGGSHPEDGLAGSTSLMHNHAALPSQPGTLPDLSRPPDSYSGLGRAGATAAASEIKREEKEDEENTSAADHSEEEKKELKAPRARTSPDEDEDDLLPPEQKAEREKERRVANNARERLRVRDINEAFKELGRMCQLHLNSEKPQTKLLILHQAVSVILNLEQQVRERNLNPKAACLKRREEEKVSGVVGDPQMVLSAPHPGLSEAHNPAGHM [TCF3] | 0.291 | -0.0342
